Measured values from paper PMC8595662.

Tests used:
AMMO1 (human) = assay: SPR
[1] = target: AMMO1, human gH/gL-specific neutralizing antibody (recombinant IgG1) (human); assay: SPR
AMMO1, human gH/gL-specific neutralizing antibody (recombinant IgG1) (human), sequence (heavy, as listed by the source, chain 1 of 2): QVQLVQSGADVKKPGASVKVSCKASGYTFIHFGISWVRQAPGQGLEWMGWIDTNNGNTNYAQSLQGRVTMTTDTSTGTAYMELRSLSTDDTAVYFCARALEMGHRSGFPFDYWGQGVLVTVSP
AMMO1, human gH/gL-specific neutralizing antibody (recombinant IgG1) (human), sequence (light, as listed by the source, chain 2 of 2): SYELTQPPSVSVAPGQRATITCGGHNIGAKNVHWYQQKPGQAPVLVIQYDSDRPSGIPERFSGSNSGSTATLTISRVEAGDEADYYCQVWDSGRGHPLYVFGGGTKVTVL

AMMO1 (human), sequence (heavy, as listed by the source, chain 1 of 2): as the sequence (heavy, as listed by the source, chain 1 of 2) above
AMMO1 (human), sequence (light, as listed by the source, chain 2 of 2): as the sequence (light, as listed by the source, chain 2 of 2) above

Substance | koff (AMMO1 (human)) | Kd [1]
gH N310A/gL (from UniProt P03231;P03212) (complex) | 9.6e-05 s⁻¹ | –
EBV gH/gL single chain with N310A in gH (from UniProt P03231;P03212) (complex) | – | 0.19 nM
